T1: pro-myostatin (uncleavable precursor, D99A/R263A/R266A) (human, UniProt O14793 24-375, D99A | R263A | R266A)
T1 sequence: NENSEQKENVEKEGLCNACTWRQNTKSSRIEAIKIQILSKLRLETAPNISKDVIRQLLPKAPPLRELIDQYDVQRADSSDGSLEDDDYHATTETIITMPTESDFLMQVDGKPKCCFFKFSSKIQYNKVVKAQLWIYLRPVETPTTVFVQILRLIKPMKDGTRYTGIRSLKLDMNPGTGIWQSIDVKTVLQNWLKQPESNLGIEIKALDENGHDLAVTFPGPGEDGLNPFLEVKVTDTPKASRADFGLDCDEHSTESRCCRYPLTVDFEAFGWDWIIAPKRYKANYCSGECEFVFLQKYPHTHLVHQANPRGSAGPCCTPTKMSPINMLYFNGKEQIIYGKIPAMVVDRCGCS


Key:
[1] = molecular target: latent myostatin (human, UniProt O14793 267-375); assay: BLI
[2] = molecular target: T1, pro-myostatin (uncleavable precursor, …); assay: BLI

Kd [1] [nM] | Kd [2] [nM] | Binder
< 0.001 | < 0.001 | 29H4-16 human IgG4 (antibody, V domains shown) VH: QIQLVQSGGGVVQPGRSLRLSCAASGFTFSSYGMHWVRQAPGKGLEWVAVISYDGSRKYYADSVKGRFTISRDNSKNTLYLQMNSLRAEDTAVYYCARDLLVRFLYWSHYYGMDVWGQGTTVTVSS VL: QPVLTQPPSASGTPGQRVTISCSGSSSNIGSNPVHWYQQLPGTAPKLLIYDDNQRPSGVPDRFSGSKSGTSASLVISGLQSDDEADYYCAAWDDSLNSVFGGGTKLTVL
1.76 | 1.51 | 29H4-16 Fab (Fab, V domains shown) VH: QIQLVQSGGGVVQPGRSLRLSCAASGFTFSSYGMHWVRQAPGKGLEWVAVISYDGSRKYYADSVKGRFTISRDNSKNTLYLQMNSLRAEDTAVYYCARDLLVRFLYWSHYYGMDVWGQGTTVTVSS VL: QPVLTQPPSASGTPGQRVTISCSGSSSNIGSNPVHWYQQLPGTAPKLLIYDDNQRPSGVPDRFSGSKSGTSASLVISGLQSDDEADYYCAAWDDSLNSVFGGGTKLTVL
